Tests used:
[1] = target: T1, Human Tau 2N4R, wild type, recombinant full length (human, UniProt P10636 2-758); experiment: SPR BIAcore, mAb captured by anti-mouse IgG, Tau flowed, 1:1 Langmuir
T1 construct: Full length 2N4R isoform; monomer in SPR and ELISA; heparin-induced aggregates or seeds in the functional assays; also called Tau441; Tau-441
Description: (§1) All experiments were performed using a BIAcore™ T-100 instrument (GE Healthcare). 10 μL anti-human IgG (monoclonal mouse anti-human Fc) from human antibody capture kit (GE Healthcare) was diluted to 25 μL/mL in 200 μL final immobilization buffer (10 mM sodium acetate, pH 5.0). The flow rate was set to 5 μL/min, flowpath 1. Fifty μL N-hydroxysuccinamide (NETS) and 50 μL 1-ethyl-3-(3-dimethylaminopropyl) carbidiimide (EDC) were mixed and injected for 420 sec to activate the CM5 chip surface. The diluted antibody was injected for 360 seconds followed by 1 M ethanolamine for 420 seconds. The flowpath was then switched to flowpath 2. A new EDC/NHS mixture was prepared and the procedure was repeated for flow cell 2. The surface was conditioned by 2 injections of 30 sec using flowpath 1, 2 at 30 μL/min of 3M MgCl₂. For the anti-mouse surface, 10 μL anti-mouse IgG (polyclonal rabbit anti-mouse IgG) from mouse antibody capture kit (GE Healthcare) was diluted to 30 μL/mL in 324 μL final immobilization buffer (10 mM sodium acetate, pH 5.0). The flow rate was set to 5 μL/min, flowpath 3. Fifty μL NHS and 50 μL EDC were mixed and injected for 420 sec to activate the chip surface. The diluted antibody was injected for 420 sec. 1 M ethanolamine was injected for 420 sec. Flow path was switched to flowpath 4. A new EDC/NHS mixture was prepared and the procedure was repeated for flow cell 4. The surface was conditioned by 2 injections of 30 sec using flowpath 3, 4 at 30 μL/min of 10 mM glycine, pH 1.7.
(§2) Binding of humanized and mouse antibodies were analyzed by BIAcore™ to determine their relative association rates (ka), dissociation rates (kd), and equilibrium binding constants (KD). Anti-mouse or anti-human antibodies were immobilized on a CM5 chip and sample mAbs were captured on the chip. 2N4R Tau was flowed over the chip and binding observed. The binding constants kₐ, kd, and KD were determined using a 1:1 Langmuir fitting model. Both 7G6-HCzu12-based mAbs had similar kₐ and kd values (Table 8). However, the kₐ of 7G6-HCzu11 was decreased, though the kd was unaffected. Therefore, human residues in the Vh3 framework impact binding to Tau.

[2] = target: T1, Human Tau 2N4R, wild type, recombinant …; experiment: as above; remark: listed apart in the source
Description: as §1, §2

[3] = target: T1, Human Tau 2N4R, wild type, recombinant …; experiment: SPR BIAcore, mAb captured by anti-human IgG, Tau flowed, 1:1 Langmuir
Description: as §1, §2

[4] = target: T1, Human Tau 2N4R, wild type, recombinant …; experiment: SPR, streptavidin capture; against ms7G6
Description: (§3) 400 μg of each antibody was diluted to 2 mg/mL and buffer-exchanged into 0.1 M sodium bicarbonate, pH 8.3 using 0.5 mL Zeba™ 40 kDa MWCO desalting columns (Thermo). NHS-PEG4-biotin, prepared immediately before use by dissolving in water to a 20 mM final stock concentration, was added to antibodies at a 5:1 molar ratio (biotin:MAb) and conjugated for 1 hr at room temperature. Excess biotin was removed by two sequential buffer exchanges into 1×DPBS using 0.5 mL Zeba™ 40 kDa MWCO desalting columns. For the BIAcore™ assay, antibodies were diluted to 2 μg/mL in PBS-P+/0.2% BSA (the same preparation used for the running buffer), centrifuged at 14,000 g for 5 min at room temperature, and the supernatant transferred to a new tube. Injection time was subsequently determined for each antibody to achieve a capture level of ˜225 RU.
(§4) Biotinylated humanized and mouse mAbs were captured on a streptavidin-coated chip and kₐ, kd, and KD were determined for binding to Tau (Table 11). […] The affinity of 7G6-HCzu8-LCzu6, 7G6-HCzu24-LCzu15, 7G6-HCzu24-LCzu18, 7G6-HCzu25-LCzu15, and 7G6-HCzu25-LCzu18 were all similar.

[5] = target: T1, Human Tau 2N4R, wild type, recombinant …; experiment: SPR BIAcore, anti-human capture, monomeric Tau, 1:1 Langmuir
Description: as §1
Tau binding for humanized mAbs was analyzed by BIAcore™ in two different formats. The first format was performed as above, i.e. mAbs were captured with an immobilized species-specific anti-Fc antibody. […] In the second format, biotinylated mAbs were captured on a streptavidin-coated chip. This latter format allowed direct comparison of Tau binding affinity between humanized and the parental mouse antibody since the capture method was identical.
The final humanized mAbs were analyzed by BIAcore™ to determine the kₐ, kd, and KD for binding to Tau as above (Table 10).

[6] = target: T1, Human Tau 2N4R, wild type, recombinant …; experiment: SPR BIAcore, biotinylated mAb on streptavidin (CAP) chip, single cycle, 1:1 Langmuir
Description: as §3, §4

T1 sequence (P10636 other isoform, or with tags, fused parts or gaps limits assumed): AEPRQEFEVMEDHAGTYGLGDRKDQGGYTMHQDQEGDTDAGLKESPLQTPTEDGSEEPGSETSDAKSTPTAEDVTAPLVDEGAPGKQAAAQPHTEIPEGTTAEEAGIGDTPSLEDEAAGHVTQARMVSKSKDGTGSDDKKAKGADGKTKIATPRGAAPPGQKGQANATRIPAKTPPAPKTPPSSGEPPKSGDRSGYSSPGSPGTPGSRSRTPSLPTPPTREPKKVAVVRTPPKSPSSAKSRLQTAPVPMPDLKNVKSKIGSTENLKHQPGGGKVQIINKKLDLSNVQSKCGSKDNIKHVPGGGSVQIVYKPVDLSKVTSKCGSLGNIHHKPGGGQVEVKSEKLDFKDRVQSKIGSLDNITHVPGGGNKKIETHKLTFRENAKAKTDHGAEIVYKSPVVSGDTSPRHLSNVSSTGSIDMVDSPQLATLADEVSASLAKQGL

Kd [3]	koff [3]	kon [3]	Binder	also measured
–	–	–	recombinant ms7G6, mouse IgG2b (antibody, V domains shown, Recombinant material, mouse IgG2b) VH: QVQLLQPGAELVKPGASVIMSCKASGYTFTTYWITWVKQRPGQGLEWIGDIYPGSSICNYNEKFKSKATLTVDTSSSTAYMQLNSLTSEDSAVYYCAREDGYDAWFAYWGQGTLVTVSA VL: DVLMTQTPLSLPVSLGDQASISCRSSQSILHSNGNTYLEWYLQKPGQSPKLLICKVSNRFSGVPDRFSGSGSGTDFTLKISRVEAEDLGVYYCFQGSHVPFTFGSGTKLEIK	Kd [1]: 4.17 nM; koff [1]: 0.00156 s⁻¹; kon [1]: 373000 M⁻¹ s⁻¹; Kd [2]: 4.17 nM; koff [2]: 0.00156 s⁻¹; kon [2]: 373000 M⁻¹ s⁻¹
–	–	–	recombinant ms7G6, mouse IgG2a (antibody, V domains shown, Recombinant material, mouse IgG2a) VH: QVQLLQPGAELVKPGASVIMSCKASGYTFTTYWITWVKQRPGQGLEWIGDIYPGSSICNYNEKFKSKATLTVDTSSSTAYMQLNSLTSEDSAVYYCAREDGYDAWFAYWGQGTLVTVSA VL: DVLMTQTPLSLPVSLGDQASISCRSSQSILHSNGNTYLEWYLQKPGQSPKLLICKVSNRFSGVPDRFSGSGSGTDFTLKISRVEAEDLGVYYCFQGSHVPFTFGSGTKLEIK	Kd [1]: 2.73 nM; koff [1]: 0.0015 s⁻¹; kon [1]: 549000 M⁻¹ s⁻¹; Kd [2]: 2.73 nM; koff [2]: 0.0015 s⁻¹; kon [2]: 549000 M⁻¹ s⁻¹
0.0959 nM	0.000141 s⁻¹	1.47e+06 M⁻¹ s⁻¹	7G6-HCzu12-LCzu15 (antibody, human IgG1, kappa, V domains shown, humanized, human IgG1 kappa) VH: EVQLLESGGGLVQPGGSLRLSCAASGYTFTTYWITWVRQAPGKGLEWVGDIYPGSSICNYNEKFKSRFTISVDNSKSTAYLQMNSLRAEDTAVYYCAREDGYDAWFAYWGQGTLVTVSS VL: DVQMTQSPSSLSASVGDRVTITCRSSQSILHSNGNTYLEWYQQKPGKAPKLLISKVSNRFSGVPSRFSGSGSGTDFTLTISSLQPEDFATYYCFQGSHVPFTFGQGTKLEIKR	–
0.168 nM	0.000239 s⁻¹	1.42e+06 M⁻¹ s⁻¹	7G6-HCzu13-LCzu12 (antibody, human IgG1, kappa, V domains shown, humanized, human IgG1 kappa) VH: EVQLLESGGGLVQPGGSLRLSCAASGYTFTTYWITWVRQAPGKGLEWVGDIYPGSSICNYADSVKGRFTISVDNSKSTAYLQMNSLRAEDTAVYYCAREDGYDAWFAYWGQGTLVTVSS VL: DVQMTQSPSSLSASVGDRVTITCRSSQSILHSNGNTYLEWYQQKPGKAPKLLICKVSNRFSGVPSRFSGSGSGTDFTLTISSLQPEDFATYYCFQGSHVPFTFGQGTKLEIKR	–
0.133 nM	0.000194 s⁻¹	1.46e+06 M⁻¹ s⁻¹	7G6-HCzu14-LCzu12 (antibody, human IgG1, kappa, V domains shown, humanized, human IgG1 kappa) VH: EVQLLESGGGLVQPGGSLRLSCAASGYTFTTYWITWVRQAPGKGLEWVGDIYPGSSICNYADKFKGRFTISVDNSKSTAYLQMNSLRAEDTAVYYCAREDGYDAWFAYWGQGTLVTVSS VL: DVQMTQSPSSLSASVGDRVTITCRSSQSILHSNGNTYLEWYQQKPGKAPKLLICKVSNRFSGVPSRFSGSGSGTDFTLTISSLQPEDFATYYCFQGSHVPFTFGQGTKLEIKR	–
0.114 nM	0.000174 s⁻¹	1.53e+06 M⁻¹ s⁻¹	7G6-HCzu16-LCzu12 (antibody, human IgG1, kappa, V domains shown, humanized, human IgG1 kappa) VH: EVQLLESGGGLVQPGGSLRLSCAASGYTFTTYWITWVRQAPGKGLEWVSDIYPGSSICNYNEKFKSRFTISVDNSKNTAYLQMNSLRAEDTAVYYCAREDGYDAWFAYWGQGTLVTVSS VL: DVQMTQSPSSLSASVGDRVTITCRSSQSILHSNGNTYLEWYQQKPGKAPKLLICKVSNRFSGVPSRFSGSGSGTDFTLTISSLQPEDFATYYCFQGSHVPFTFGQGTKLEIKR	–
0.119 nM	0.000136 s⁻¹	1.14e+06 M⁻¹ s⁻¹	7G6-HCzu20-LCzu12 (antibody, human IgG1, kappa, V domains shown, humanized, human IgG1 kappa) VH: EVQLLESGGGLVQPGGSLRLSCAASGYTFTTYWITWVRQAPGKGLEWVSDIYPGSSICNYADKFKGRFTISRDNSKNTLYLQMNSLRAEDTAVYYCAKEDGYDAWFAYWGQGTLVTVSS VL: DVQMTQSPSSLSASVGDRVTITCRSSQSILHSNGNTYLEWYQQKPGKAPKLLICKVSNRFSGVPSRFSGSGSGTDFTLTISSLQPEDFATYYCFQGSHVPFTFGQGTKLEIKR	–
0.121 nM	0.000152 s⁻¹	1.25e+06 M⁻¹ s⁻¹	7G6-HCzu19-LCzu12 (antibody, human IgG1, kappa, V domains shown, humanized, human IgG1 kappa) VH: EVQLLESGGGLVQPGGSLRLSCAASGYTFTTYWITWVRQAPGKGLEWVSDIYPGSSICNYADKFKGRFTISRDNSKNTLYLQMNSLRAEDTAVYYCAREDGYDAWFAYWGQGTLVTVSS VL: DVQMTQSPSSLSASVGDRVTITCRSSQSILHSNGNTYLEWYQQKPGKAPKLLICKVSNRFSGVPSRFSGSGSGTDFTLTISSLQPEDFATYYCFQGSHVPFTFGQGTKLEIKR	–
0.099 nM	0.000148 s⁻¹	1.49e+06 M⁻¹ s⁻¹	7G6-HCzu12-LCzu16 (antibody, human IgG1, kappa, V domains shown, humanized, human IgG1 kappa) VH: EVQLLESGGGLVQPGGSLRLSCAASGYTFTTYWITWVRQAPGKGLEWVGDIYPGSSICNYNEKFKSRFTISVDNSKSTAYLQMNSLRAEDTAVYYCAREDGYDAWFAYWGQGTLVTVSS VL: DVQMTQSPSSLSASVGDRVTITCRSSQSIVHSNGNTYLEWYQQKPGKAPKLLISKVSNRFSGVPSRFSGSGSGTDFTLTISSLQPEDFATYYCFQGSHVPFTFGQGTKLEIKR	–
0.138 nM	0.000278 s⁻¹	2.02e+06 M⁻¹ s⁻¹	7G6-HCzu15-LCzu12 (antibody, human IgG1, kappa, V domains shown, humanized, human IgG1 kappa) VH: EVQLLESGGGLVQPGGSLRLSCAASGYTFTTYWITWVRQAPGKGLEWVGDIYPGSSICNYNEKFKSRFTISVDNSKNTAYLQMNSLRAEDTAVYYCAREDGYDAWFAYWGQGTLVTVSS VL: DVQMTQSPSSLSASVGDRVTITCRSSQSILHSNGNTYLEWYQQKPGKAPKLLICKVSNRFSGVPSRFSGSGSGTDFTLTISSLQPEDFATYYCFQGSHVPFTFGQGTKLEIKR	–
–	–	–	7G6-HCzu24-LCzu15 (antibody, human IgG1, kappa, humanized, human IgG1 kappa) heavy: not shown light: DVQMTQSPSSLSASVGDRVTITCRSSQSILHSNGNTYLEWYQQKPGKAPKLLISKVSNRFSGVPSRFSGSGSGTDFTLTISSLQPEDFATYYCFQGSHVPFTFGQGTKLEIKRTVAAPSVFIFPPSDEQLKSGTASVVCLLNNFYPREAKVQWKVDNALQSGNSQESVTEQDSKDSTYSLSSTLTLSKADYEKHKVYACEVTHQGLSSPVTKSFNRGEC	fold drop in affinity [4]: ~1.4 fold; Kd [5]: 0.13 nM; koff [5]: 0.00011 s⁻¹; kon [5]: 809000 M⁻¹ s⁻¹; Kd [6]: 0.0898 nM; koff [6]: 0.000487 s⁻¹; kon [6]: 5.42e+06 M⁻¹ s⁻¹
0.0815 nM	0.000128 s⁻¹	1.57e+06 M⁻¹ s⁻¹	7G6-HCzu18-LCzu12 (antibody, human IgG1, kappa, V domains shown, humanized, human IgG1 kappa) VH: EVQLLESGGGLVQPGGSLRLSCAASGYTFTTYWITWVRQAPGKGLEWVSDIYPGSSICNYNEKFKSRFTISRDNSKNTLYLQMNSLRAEDTAVYYCAREDGYDAWFAYWGQGTLVTVSS VL: DVQMTQSPSSLSASVGDRVTITCRSSQSILHSNGNTYLEWYQQKPGKAPKLLICKVSNRFSGVPSRFSGSGSGTDFTLTISSLQPEDFATYYCFQGSHVPFTFGQGTKLEIKR	–

Reference: patent US20190112365A1 (EISAI R AND D MANAGEMENT, published 2019)
